Data from patent US20230025129A1 (KYMAB, published 2023).
Where a chain is given by its changes, count along the chain named. One block for each binder: values may come before it.

Legend:
Test in all cases: cell-based or functional assay
[1] = molecular target: T1, human matriptase-2 ECD protein his tag (human, UniProt Q8IU80 78-811)
T1 sequence: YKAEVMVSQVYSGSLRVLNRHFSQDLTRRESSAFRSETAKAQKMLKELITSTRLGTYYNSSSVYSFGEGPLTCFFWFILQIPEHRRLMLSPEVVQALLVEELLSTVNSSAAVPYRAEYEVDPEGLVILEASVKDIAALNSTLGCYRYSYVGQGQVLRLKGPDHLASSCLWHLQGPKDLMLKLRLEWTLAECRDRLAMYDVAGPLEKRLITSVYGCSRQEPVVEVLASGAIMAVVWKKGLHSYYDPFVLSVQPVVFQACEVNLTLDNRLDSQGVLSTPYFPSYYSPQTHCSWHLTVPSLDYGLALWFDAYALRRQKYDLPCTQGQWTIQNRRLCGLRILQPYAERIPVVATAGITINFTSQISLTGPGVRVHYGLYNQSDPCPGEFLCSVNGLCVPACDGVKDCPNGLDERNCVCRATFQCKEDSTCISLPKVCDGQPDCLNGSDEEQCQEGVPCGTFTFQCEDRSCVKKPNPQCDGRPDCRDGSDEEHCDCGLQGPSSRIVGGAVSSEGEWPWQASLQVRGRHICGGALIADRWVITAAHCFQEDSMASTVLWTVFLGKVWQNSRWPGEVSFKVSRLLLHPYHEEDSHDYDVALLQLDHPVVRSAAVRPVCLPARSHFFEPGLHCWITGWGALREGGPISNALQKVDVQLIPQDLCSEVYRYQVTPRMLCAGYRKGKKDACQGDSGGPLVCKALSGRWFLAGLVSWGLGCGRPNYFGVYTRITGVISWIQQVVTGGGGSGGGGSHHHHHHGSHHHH

[2] = molecular target: T2, mouse matriptase-2 ECD protein his tag (mouse, UniProt Q9DBI0 80-811)
T2 sequence: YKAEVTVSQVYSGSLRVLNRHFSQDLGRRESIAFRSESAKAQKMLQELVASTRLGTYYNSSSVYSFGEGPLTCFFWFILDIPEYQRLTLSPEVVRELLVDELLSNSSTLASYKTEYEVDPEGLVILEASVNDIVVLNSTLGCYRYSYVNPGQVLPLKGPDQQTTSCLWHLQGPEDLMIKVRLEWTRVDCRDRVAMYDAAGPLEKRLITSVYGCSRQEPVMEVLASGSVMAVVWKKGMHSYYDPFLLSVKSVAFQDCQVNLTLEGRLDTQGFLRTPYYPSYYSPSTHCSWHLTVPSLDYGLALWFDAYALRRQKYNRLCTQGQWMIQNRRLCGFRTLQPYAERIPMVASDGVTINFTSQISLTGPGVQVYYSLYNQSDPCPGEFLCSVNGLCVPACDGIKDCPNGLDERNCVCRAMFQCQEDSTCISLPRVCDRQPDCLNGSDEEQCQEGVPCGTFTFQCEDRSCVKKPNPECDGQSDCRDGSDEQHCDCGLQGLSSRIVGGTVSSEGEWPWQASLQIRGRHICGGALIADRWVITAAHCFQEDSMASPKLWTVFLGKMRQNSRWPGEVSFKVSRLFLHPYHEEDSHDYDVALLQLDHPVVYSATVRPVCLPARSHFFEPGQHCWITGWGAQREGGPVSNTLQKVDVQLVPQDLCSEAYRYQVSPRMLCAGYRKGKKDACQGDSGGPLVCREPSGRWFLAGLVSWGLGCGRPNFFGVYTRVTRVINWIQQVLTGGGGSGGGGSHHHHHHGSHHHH

[3] = molecular target: T3, human MTP-2 expressed on HEK293 cells (human, UniProt Q8IU80 1-811)
T3 sequence: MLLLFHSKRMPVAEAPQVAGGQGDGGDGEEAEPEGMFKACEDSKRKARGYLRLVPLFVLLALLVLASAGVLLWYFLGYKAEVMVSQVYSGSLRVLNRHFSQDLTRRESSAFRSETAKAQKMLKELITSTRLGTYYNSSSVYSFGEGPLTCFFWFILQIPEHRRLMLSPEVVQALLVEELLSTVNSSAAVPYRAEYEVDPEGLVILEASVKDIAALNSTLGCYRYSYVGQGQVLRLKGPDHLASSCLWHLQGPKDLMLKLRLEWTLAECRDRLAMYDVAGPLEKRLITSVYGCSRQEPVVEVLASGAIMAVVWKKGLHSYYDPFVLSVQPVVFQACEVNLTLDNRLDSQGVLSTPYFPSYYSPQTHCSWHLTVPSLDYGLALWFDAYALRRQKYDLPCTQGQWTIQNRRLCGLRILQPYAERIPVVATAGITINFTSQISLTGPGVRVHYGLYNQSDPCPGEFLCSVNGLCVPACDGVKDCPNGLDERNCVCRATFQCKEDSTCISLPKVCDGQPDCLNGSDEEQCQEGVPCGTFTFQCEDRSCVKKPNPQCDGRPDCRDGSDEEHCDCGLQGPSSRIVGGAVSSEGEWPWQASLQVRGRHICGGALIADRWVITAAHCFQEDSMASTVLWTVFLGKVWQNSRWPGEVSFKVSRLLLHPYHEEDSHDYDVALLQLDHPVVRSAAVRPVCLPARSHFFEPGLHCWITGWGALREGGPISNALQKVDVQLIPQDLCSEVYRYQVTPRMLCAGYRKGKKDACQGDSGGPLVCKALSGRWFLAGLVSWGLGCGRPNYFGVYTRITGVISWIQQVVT

B3: NORI-021 (antibody, human IgG4 S228P, lambda, V domains shown)
VH: QVQLVESGGGLVKPGGSLRLSCAAFGFTFSDYYMGWIRQAPGKGLEWVSHISSSGRTRYYADSVKGRFTISRDNAKNALYLQMDSLRAEDTAVFYCARAQLRYFDWLDYWGQGTLVTVSS
VL: QSVLTQPPSVSAAPGQKVTISCSGSGSNIGNNYVSWYQQVPGTAPKLLIYDNNKRPSGIPDRFSGSKSGTSATLGITGLQTGDEADYYCGTWDSSLSAGVFGGGTKLTVLG
Inhibition enzymatic activity human MTP2 protein (IC50) [1]: 2.71 nM
Inhibition enzymatic activity human MTP2 on cells (IC50) [3]: 8.21 nM
Inhibition enzymatic activity mouse MTP2 protein (IC50) [2]: 1.9 nM

B5: NORI-017 (antibody, human IgG4 S228P, lambda, V domains shown)
VH: QVHLVESGGAVVQPGRSLRLSCAASGFTFSNFDMHWVRQTPGKGLEWVTIIRYDETNIYYTESVKGRFTTSRDNSKNTLYLQMNSLRVEDTAVYYCARGWTGSYVFDYWGQGALVTVSS
VL: QSVLTQPPSVSEAPRQRVTISCSGGSSNIGNNAVNWYQQVPGKAPKLLIHYDDLLPSGVSDRFSGSKSGTSASLAISGLQSEDEADYYCAAWDDSLNGVVFGGGTKLTVLG
Inhibition enzymatic activity human MTP2 protein (IC50) [1]: 1.51 nM
Inhibition enzymatic activity human MTP2 on cells (IC50) [3]: 0.198 nM
Inhibition enzymatic activity mouse MTP2 protein (IC50) [2]: 0.489 nM

B6: NORI-019 (antibody, human IgG4 S228P, lambda, V domains shown)
VH: QVQLVESGGGVVQPGRSLRLSCAASGFTFSNFDMHWVRQAPGKGLEWVAIISYDGSDKYYEDSVKGRFTISRDNSKNTLYLQMNSLRAEDTAIYYCAKDGYGSSLFDHWGQGTLVTVSS
VL: B5 VL with G25S, Y37F, V40L, K43E, A44V, H50Y, A91V, V100L
Inhibition enzymatic activity human MTP2 protein (IC50) [1]: 1.54 nM
Inhibition enzymatic activity human MTP2 on cells (IC50) [3]: 0.0978 nM
Inhibition enzymatic activity mouse MTP2 protein (IC50) [2]: 0.911 nM

B7: NORI-015 (antibody, human IgG4 S228P, lambda, V domains shown)
VH: EVQLVESGGGLIQAGRSLRLSCAASGFTFDEHVIYWVRQIPGKGLEWISSISWKSDIIAYADSVKGRFTISRDNAKNALYLQMNSLRAEDTALYYCAREKDGDFYYYYFAMDVWGQGTTVTVSS
VL: QSALTQPPSASGSPGQSVTISCTGTSSNVGYYNYVSWYQQHPGKAPKLMIYEVNKRPSGVPDRFSGSKSANTASLTVSGLQADDEADYYCSSYAGSNKVVFGGGTKLTVLG
Inhibition enzymatic activity human MTP2 protein (IC50) [1]: 5.51 nM
Inhibition enzymatic activity mouse MTP2 protein (IC50) [2]: 5.7 nM

B9: NORI-007 (antibody, human IgG4 S228P, kappa, V domains shown)
VH: EVQLVESGGGLVKPGRSLRLSCTGSGFTFGDFGMSWFRQAPGKGLEWVCFIRSKPYGGTTDYAPSVKGRFTISRDDSISIAYLQMNSLTTEDTAVYYCSRNDILTGYYIFDYWGQGTQVTVSS
VL: DIQMTQSPSSLSASLGDSITITCQASQDITNYLIWYQHKPGKAPKLLIFDASNLETGVPSRFSGSGSGTDFTFTISSLQPEDYATYYCQQYYNLPLTFGGGTKVDIKR
Inhibition enzymatic activity human MTP2 protein (IC50) [1]: 8.79 nM
Inhibition enzymatic activity mouse MTP2 protein (IC50) [2]: 39.3 nM

The remaining lines, values ahead:

Inhibition enzymatic activity human MTP2 protein (IC50) [1]: 10.1 nM
Inhibition enzymatic activity mouse MTP2 protein (IC50) [2]: 12.4 nM
B1: NORI-001 (antibody, human IgG4 S228P, kappa, V domains shown)
VH: QVQLVQSGAEVKKPGASVKVSCKVSGYTLSEFSIHWVRQAPGKGLEWMGGFDPEKGKTIYAQKFQGRVTMTEDTSTDTAYMDLSSLRSEDTAVYYCVTEGHFYGSGVFDFWGQGTLVTVSS
VL: DIQMTQSPSSLSASVGDRVTITCRPSQGLRFDFGWYQQRPGKAPRRLIYAASILQSGVPSRFSGSGSGTEFTLTISSLQPEDFATYYCLQHNNYPWTFGQGTKVEIKR

Inhibition enzymatic activity human MTP2 protein (IC50) [1]: 5.95 nM
Inhibition enzymatic activity mouse MTP2 protein (IC50) [2]: 12.7 nM
B2: NORI-005 (antibody, human IgG4 S228P, kappa, V domains shown)
VH: EVHLVESGGGLIKPGRSLRLSCTGSGFTFGDFGLSWFRQAPGKGLEWISFIRSKPYGGTTDYAASVKGRFTISRDDSKSVAYLQMNSLKTEDSAVYYCARNEILTGYYIFDYWGQGILVTVSS
VL: DIQMTQSPSSLSASLGDRLTITCQASQDISNYLSWYQLQPGKAPKLLIFDASILETGVPSRFSGSGSGTDFSFTVSSLQPEDIATYYCQQYDNLPLTFGGGTKVDLKR

Inhibition enzymatic activity human MTP2 protein (IC50) [1]: 1.72 nM
Inhibition enzymatic activity human MTP2 on cells (IC50) [3]: 0.146 nM
Inhibition enzymatic activity mouse MTP2 protein (IC50) [2]: 1.44 nM
B4: NORI-020 (antibody, human IgG4 S228P, lambda, V domains shown)
VH: QLQLQESGPGLVKPAETLSLMCTVSGDSISSSHYFWGWIRQPPGKGLEWIGSMYYSGSTYYNPSLKSRVTISVDTSNNQFSLKLRSVTAADTAVYYCVRHNNWGLDNYFDYWGQGTLVTVSS
VL: SYELTQPPSVSVSPGQTARITCSADALPDQYAYWYQQKPGQAPLLVIYKDSERPSGIPERFSGSSSGTIVTLTIRGVQAEDEADYYCQSADSSGSYAVFGGGTKLTVLG

Inhibition enzymatic activity human MTP2 protein (IC50) [1]: 10.4 nM
Inhibition enzymatic activity mouse MTP2 protein (IC50) [2]: 9.27 nM
B8: NORI-016 (antibody, human IgG4 S228P, lambda, V domains shown)
VH: B7 VH with I34M, S52T
VL: B7 VL

Inhibition enzymatic activity human MTP2 protein (IC50) [1]: 8.53 nM
Inhibition enzymatic activity mouse MTP2 protein (IC50) [2]: 16.2 nM
B10: NORI-002 (antibody, human IgG4 S228P, kappa, V domains shown)
VH: B9 VH with K67R, T71S, I78K, S79G, A81V, T89R, D102E, Q118L
VL: B9 VL with S18R, I19V, Q27H, H38Q, K45R, N53I, Y83F

Inhibition enzymatic activity human MTP2 protein (IC50) [1]: 5.9 nM
Inhibition enzymatic activity mouse MTP2 protein (IC50) [2]: 22.4 nM
B11: NORI-004 (antibody, human IgG4 S228P, kappa, V domains shown)
VH: B9 VH with G68D, I78K, S79D, A81V, T89R, D102E, Q118L
VL: B9 VL with S18R, I19V, Q27H, H38Q, K45R, N53I, Y83F

Inhibition enzymatic activity human MTP2 protein (IC50) [1]: 2.12 nM
Inhibition enzymatic activity human MTP2 on cells (IC50) [3]: 2.22 nM
Inhibition enzymatic activity mouse MTP2 protein (IC50) [2]: 0.589 nM
B12: NORI-018 (antibody, human IgG4 S228P, lambda, V domains shown)
VH: QLQLVQSGAEVKKPGASVKVSCKASGYTFTTFGIVWVRQAPGQGLEWMGWISGYNGNTKYAQNLQGRVTMTTDTSTSTAYMELRSLRSDDTAIYYCARDRAIAPRFDPWGQGTLVTVSS
VL: SYELTQPPSVSVSPGQAASIPCSGDNLGDNFACWYQQKPGQSPVLVIYQDSKRPSGIPERFSGSNSGNTATLTINGTQAMDEADYYCQAWDSSTVVFGGGTKLTVLG
